Source: paper PMC8041205 (2021)

Biological target: BSA
Experiment: ITC

B1: UBE2D1 (R&D) (enzyme)
chain: not shown
Kd: > 10 mM
